Source: paper PMC11793155

B1: ACTRIIB (activin receptor type IIB, ACVR2B): tunicamycin (TM) (protein)
parent chain: MTAPWVALALLWGSLCAGSGRGEAETRECIYYNANWELERTNQSGLERCEGEQDKRLHCYASWRNSSGTIELVKKGCWLDDFNCYDRQECVATEENPQVYFCCCEGNFCNERFTHLPEAGGPEVTYEPPPTAPTLLTVLAYSLLPIGGLSLIVLLAFWMYRHRKPPYGHVDIHEDPGPPPPSPLVGLKPLQLLEIKARGRFGCVWKAQLMNDFVAVKIFPLQDKQSWQSEREIFSTPGMKHENLLQFIAAEKRGSNLEVELWLITAFHDKGSLTDYLKGNIITWNELCHVAETMSRGLSYLHEDVPWCRGEGHKPSIAHRDFKSKNVLLKSDLTAVLADFGLAVRFEPGKPPGDTHGQVGTRRYMAPEVLEGAINFQRDAFLRIDMYAMGLVLWELVSRCKAADGPVDEYMLPFEEEIGQHPSLEELQEVVVHKKMRPTIKDHWLKHPGLAQLCVTIEECWDHDAEARLSAGCVEERVSLIRRSVNGTTSDCLVSLVTSVTNVDLPPKESSI
B2: ACTRIIB (activin receptor type IIB, ACVR2B): tunicamycin (TM) + CHX (protein)
parent chain: B1 parent chain

Assays:
[1] = immunofluorescence, confocal microscopy; conditions: glycan lost; control: untreated cells
[2] = cycloheximide chase 0-12 h, western blot; conditions: glycan lost; control: CHX alone

Protein | localisation_or_trafficking [1] | degradation_or_half_life [2]
B1 | decreases | –
B2 | – | decreases
